Patent publication US20210054078A1 (PHARMABCINE, published 2021)
Residue numbers refer to the chain shown, from its start.

B1: ME4 anti-PD-L1 antibody (IgG form) (antibody, V domains shown)
VH: QVQLVESGAEVKKPGSSVKVSCKASGGTFNNYAVSWVRQAPGQGLEWMGRIIPILGIANYAQTFQGRVTITADKSTTTAYMELSSLRSEDTAVYYCARSYSGYAEGAFDIWGQGTMVTVSS
VL: QFVLTQPPSVSGAPGQRVTISCTGSSSNIGAGYDVHWYQQLPGTAPKVLIYGNSDRPSGVPDRFSGSKSGTSASLAITGLQGEDKATYYCQSYDSRLSGPVFGTGTKVTVLG
notes: Converted to IgG with the vectors pIgGHD-6A6Hvy and pIgGLD-6A6Lgt; Expressed in Expi293F cells
B2: ME4.B10 anti-PD-L1 antibody (IgG form) (antibody, V domains shown)
VH: B1 VH with Y100A, S101R, E105H
VL: B1 VL
B3: ME4.A2 anti-PD-L1 antibody (IgG form) (antibody, V domains shown)
VH: B1 VH with Y100S, S101R, E105H
VL: B1 VL
B4: ME4.A11 anti-PD-L1 antibody (IgG form) (antibody, V domains shown)
VH: B1 VH with Y100R, S101G, E105H
VL: B1 VL
B5: ME4.B12 anti-PD-L1 antibody (IgG form) (antibody, V domains shown)
VH: B1 VH with Y100S, S101F, A104S, E105V
VL: B1 VL
B6: ME4.A12 anti-PD-L1 antibody (IgG form) (antibody, V domains shown)
VH: B1 VH with Y100H, S101W, E105H
VL: B1 VL
B7: 1G1 anti-PD-L1 antibody (IgG form) (antibody, V domains shown)
VH: QVQLVESGGGLVQPGRSLRLSCAASGFTFDDYAMHWVRQAPGKGLEWVSGISWNSGSIGYADSVKGRFTISRDNAKNSLYLQMNSLRAEDTAVYYCAKPRDISSWLGMDVWGQGTTVTVSS
VL: DIQMTQSPSSVSASVGDRVTITCRASQDISSWLAWYQQKPGKAPKLLIYAASSLQSGVPSRFSGSGSGTDFTLTISSLQPEDSATYYCQQTNNFPYTFGQGTKLEIKR
notes: Converted to IgG with the vectors pIgGHD-6A6Hvy and pIgGLD-6A6Lgt; Expressed in Expi293F cells; also called IG1

Target: T1, human PD-L1 (soluble protein of the kinetic measurements) (human, UniProt Q9NZQ7 19-238, limits assumed)
T1 construct: kept apart from the His-tag protein of the ELISA; also called hPD-L1
Assay: BLI (Octet), antibody fixed on biosensor, PD-L1 in solution
Description: (§1) The binding ability of the selected anti-PD-L1 antibody to human or mouse PD-L1 was measured using the Octet system (Fortebio Inc. US). For this purpose, an anti-PD-L1 antibody was fixed on a biosensor, and binding kinetics at each concentration of human or mouse PD-L1 were measured to calculate a binding rate constant (kₐ), a dissociation rate constant (kdis) and a binding constant (KD) (Table 3).
(§2) The cell-binding ability of the optimized anti-PD-L1 antibody was measured through flow cytometry. The experiment was performed in the same manner as in Example 6. […] In order to evaluate binding force, binding kinetics were analyzed using Octet and the binding constant was calculated (Table 7).

T1 sequence (Q9NZQ7 19-238 limits assumed): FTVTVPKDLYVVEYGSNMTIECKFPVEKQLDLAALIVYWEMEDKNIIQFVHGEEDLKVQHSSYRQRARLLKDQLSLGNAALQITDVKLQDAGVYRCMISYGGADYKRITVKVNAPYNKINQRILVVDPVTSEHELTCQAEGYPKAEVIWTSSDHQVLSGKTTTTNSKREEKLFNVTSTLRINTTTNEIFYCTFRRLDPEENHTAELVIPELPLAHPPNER

| koff [s⁻¹] | kon [M⁻¹ s⁻¹] | Kd [nM] | Binder |
| --- | --- | --- | --- |
| 0.000324 | 188000 | – | B1 |
| ~2.42e-05 | 145000 | 0.167 | B2 |
| 1.02e-05 | 174000 | 0.0586 | B3 |
| 0.000109 | 118000 | 0.918 | B4 |
| 3.19e-06 | 164000 | 0.0194 | B5 |
| 2.2e-05 | 165000 | 0.134 | B6 |

Target: T2, mouse PD-L1 (soluble protein of the kinetic measurements) (mouse, UniProt Q9EP73 19-238, limits assumed)
T2 construct: kept apart from the His-tag protein of the ELISA; also called mPD-L1
Assay: as above
Description: as §1, §2

T2 sequence (Q9EP73 19-238 limits assumed): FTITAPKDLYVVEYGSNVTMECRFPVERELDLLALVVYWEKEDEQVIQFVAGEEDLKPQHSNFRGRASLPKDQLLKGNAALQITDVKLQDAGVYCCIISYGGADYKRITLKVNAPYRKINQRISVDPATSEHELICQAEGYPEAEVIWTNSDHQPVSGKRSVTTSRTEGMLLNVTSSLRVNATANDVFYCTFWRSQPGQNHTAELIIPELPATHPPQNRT

| Kd [nM] | koff [s⁻¹] | kon [M⁻¹ s⁻¹] | Binder |
| --- | --- | --- | --- |
| 37.4 | 0.00211 | 56300 | B1 |
| 1.62 | 0.000422 | 260000 | B2 |
| 3.01 | 0.000986 | 328000 | B3 |
| 4.86 | 0.000626 | 129000 | B4 |
| 1.22 | 0.000379 | 310000 | B5 |
| 2.65 | 0.000817 | 308000 | B6 |

Target: T1, human PD-L1 (soluble protein of the …)
Assay: as above
Remark: another data set of the same source
Description: as §1

| Kd [nM] | koff [s⁻¹] | kon [M⁻¹ s⁻¹] | Binder |
| --- | --- | --- | --- |
| 0.629 | 0.000146 | 232000 | B7 |
| 1.72 | 0.000324 | 188000 | B1 |

Target: T2, mouse PD-L1 (soluble protein of the …)
Assay: as above
Remark: another data set of the same source
Description: as §1

| Kd [nM] | koff [s⁻¹] | kon [M⁻¹ s⁻¹] | Binder |
| --- | --- | --- | --- |
| 37.4 | 0.00211 | 56300 | B1 |

Target: T3, mouse PD-L1 on mPD-L1/CHO-K1 overexpressing cells (mouse, UniProt Q9EP73 19-290)
T3 construct: whole, on cells; also called mouse PD-L1-expressing cells
Assay: flow cytometry, purified IgG on mPD-L1/CHO-K1 cells, PE anti-human IgG-Fc
Description: (§3) For flow cytometry, overexpressing cell lines (hPD-L1/CHO-K1, mPD-L1/CHO-K1), established by introducing human and. mouse PD-L1 genes into CHO-K1 cells, were used. Each cell was maintained and cultured, washed with PBS, suspended in 5 mM EDTA and then recovered through centrifugation. A cell suspension (5×10⁶ cells/ml) was prepared using a FACS-exclusive buffer (containing 2% FBS and PBS 0.05% sodium azide), and was seeded at 100 μl/tube. […] of a test antibody was added at 100 μl to each test tube and then allowed to stand at 4° C. for 30 minutes to induce antibody-cell binding. […] After washing with 2 ml of FACS buffer, 200 μl of FACS buffer was added to suspend the cells. As a positive control group, fluorescence labeling was conducted using FITC-conjugated anti-human PD-L1 antibody (#558065, BD Biosciences) and PE-conjugated anti-mouse […] (#558091, BD Biosciences).

T3 sequence (Q9EP73 19-290): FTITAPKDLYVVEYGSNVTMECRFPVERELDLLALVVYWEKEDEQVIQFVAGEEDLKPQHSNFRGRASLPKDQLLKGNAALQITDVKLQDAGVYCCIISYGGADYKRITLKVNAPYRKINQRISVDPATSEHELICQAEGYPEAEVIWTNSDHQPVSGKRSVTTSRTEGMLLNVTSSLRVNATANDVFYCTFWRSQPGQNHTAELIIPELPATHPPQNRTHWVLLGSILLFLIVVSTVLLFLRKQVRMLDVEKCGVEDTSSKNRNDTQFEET

| binding result | Binder |
| --- | --- |
| no binding | B7 |

Target: T3, mouse PD-L1 on mPD-L1/CHO-K1 …
Assay: flow cytometry on mPD-L1/CHO-K1 cells (sheet label mPD-1/CHO-K1)
Description: as §3, §2

| % Gated in M1 [%] | Geo Mean in M1 | Geo Mean, all events | Mean in M1 | Mean, all events | Binder |
| --- | --- | --- | --- | --- | --- |
| 28.8 | 20 | 10.4 | 20.6 | 12.3 | B1 |
| 18.1 | 15 | 6.41 | 15.4 | 7.85 | B2 |
| 51 | 19.1 | 10.8 | 20.3 | 13.8 | B3 |
| 9.44 | 14.2 | 5.55 | 14.5 | 6.63 | B4 |
| 27.2 | 16.1 | 7.13 | 16.6 | 9.1 | B5 |
| 7.31 | 14.2 | 5.39 | 14.4 | 6.38 | B6 |

Target: T4, human PD-L1 on hPD-L1/CHO-K1 overexpressing cells (human, UniProt Q9NZQ7 19-290)
T4 construct: whole, on cells; also called human PD-L1-expressing cells
Assay: flow cytometry on hPD-L1/CHO-K1 cells (sheet label hPD-1/CHO-K1)
Description: as §3, §2

T4 sequence (Q9NZQ7 19-290): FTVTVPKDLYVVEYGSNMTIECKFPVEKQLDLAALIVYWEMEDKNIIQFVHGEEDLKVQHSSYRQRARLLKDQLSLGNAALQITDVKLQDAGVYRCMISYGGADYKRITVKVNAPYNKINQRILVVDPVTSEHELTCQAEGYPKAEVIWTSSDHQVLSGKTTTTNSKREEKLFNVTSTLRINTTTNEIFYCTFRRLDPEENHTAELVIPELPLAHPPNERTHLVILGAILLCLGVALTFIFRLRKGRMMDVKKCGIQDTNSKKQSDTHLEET

| % Gated in M1 [%] | Geo Mean in M1 | Geo Mean, all events | Mean in M1 | Mean, all events | Binder |
| --- | --- | --- | --- | --- | --- |
| 83.2 | 34.4 | 27.8 | 38.3 | 33.6 | B1 |
| 50.3 | 19.4 | 11.5 | 21 | 14.2 | B2 |
| 72.4 | 29.1 | 20.7 | 33 | 26.4 | B3 |
| 52.6 | 19.4 | 12.1 | 21 | 14.7 | B4 |
| 81.6 | 29.2 | 22.5 | 33.8 | 28.9 | B5 |
| 44.6 | 18.4 | 10.6 | 19.7 | 12.9 | B6 |

Target: T5, Mouse PD-L1-HisTag (#50010-M08H, Sino Biological Inc.) (mouse, UniProt Q9EP73 19-238)
T5 construct: Bought protein coated on the ELISA plate; also called mPD-L1; His-tag mouse PD-L1 protein; not shown: His tag
Assay: ELISA on coated His-tag mouse PD-L1, OD450-630

T5 sequence (Q9EP73 19-238 limits assumed, stated change not applied): as the sequence (Q9EP73 19-238 limits assumed) above

| binding result | Binder |
| --- | --- |
| no binding | B7 |
